Columns and labels:
[1] = substrate: Nc1ncnc2c1ncn2[C@@H]1O[C@H](COP(=O)(O)OP(=O)(O)O)[C@@H](O)[C@H]1O; assay: HPLC of AMP formed from ADP; format: biochemical, Thermococcus kodakarensis; conditions: L-serine co-substrate (50 mM in standard assay), MgCl2, 50 mM Tris-HCl pH 7.5, 85 °C
purified protein = substrate: N[C@@H](CO)C(=O)O; assay: purified protein; conditions: ADP co-substrate, MgCl2, 50 mM Tris-HCl pH 7.5, 85 °C (standard assay; 20 mM each ADP and MgCl2)

B1: TK0378 protein; ADP-dependent Ser kinase (SerK; Tk-SerK) (Thermococcus kodakarensis KOD1) (protein)
chain: MGVEKVPKYDIPTKKVDYVFIELDKMKPHEQLVQKELEAFIESVTGSGIFWKPMLLAKVPGEDMYLIVDGHHRWAGLQKLGAKRAPSVILDYFSDDVKVYTWYPAFKGDLNEVVERLKKEGLEVIEDPEAEEKAERGEIAFALVGEKSFAIPGGLEEQKKVSKVLDEMSVEGKIELIYYGLKEDAREDMAKGEIDYVFIRKAPTKEEVMELVKRGEVYSPKTTRHVLPFNPDKIDVKLEELF
notes: full coding region in pET21a(+) (NdeI/EcoRI), no tag mentioned; E. coli BL21-CodonPlus(DE3)-RIL; heat treatment, Resource Q, Superdex 200
[1]
  Km: 2.4 ± 0.5 mM
  kcat: 204 ± 12 s⁻¹
Purified protein
  Km: 5.1 ± 0.5 mM
  kcat: 218 ± 5 s⁻¹

Reference: article PMC5120207, “An archaeal ADP-dependent serine kinase involved in cysteine biosynthesis and serine metabolism” (Nature Communications, 2016)
